Reference: paper PMC4507941 (PLoS ONE, 2015)
“Also recorded” adds a separate entry of the source. Read-outs that look alike come from different tables or passages of the source. Where no end group is shown, it is not given here.

How the values were obtained:
pitrilysin [1] = target: T1, pitrilysin (Homo sapiens, UniProt Q5JRX3); experiment: Cleavage of peptide substrates by recombinant pitrilysin (HPLC substrate disappearance; KM as alternate substrate inhibitor of a fluorogenic peptide); assay type: biochemical; settings: for Degradation of monomeric IAPP by pitrilysin: monomeric peptide 20 μM, HPLC
T1 construct: made in house; host or cells: Sf9 cells
T1 sequence (Q5JRX3 29-1037): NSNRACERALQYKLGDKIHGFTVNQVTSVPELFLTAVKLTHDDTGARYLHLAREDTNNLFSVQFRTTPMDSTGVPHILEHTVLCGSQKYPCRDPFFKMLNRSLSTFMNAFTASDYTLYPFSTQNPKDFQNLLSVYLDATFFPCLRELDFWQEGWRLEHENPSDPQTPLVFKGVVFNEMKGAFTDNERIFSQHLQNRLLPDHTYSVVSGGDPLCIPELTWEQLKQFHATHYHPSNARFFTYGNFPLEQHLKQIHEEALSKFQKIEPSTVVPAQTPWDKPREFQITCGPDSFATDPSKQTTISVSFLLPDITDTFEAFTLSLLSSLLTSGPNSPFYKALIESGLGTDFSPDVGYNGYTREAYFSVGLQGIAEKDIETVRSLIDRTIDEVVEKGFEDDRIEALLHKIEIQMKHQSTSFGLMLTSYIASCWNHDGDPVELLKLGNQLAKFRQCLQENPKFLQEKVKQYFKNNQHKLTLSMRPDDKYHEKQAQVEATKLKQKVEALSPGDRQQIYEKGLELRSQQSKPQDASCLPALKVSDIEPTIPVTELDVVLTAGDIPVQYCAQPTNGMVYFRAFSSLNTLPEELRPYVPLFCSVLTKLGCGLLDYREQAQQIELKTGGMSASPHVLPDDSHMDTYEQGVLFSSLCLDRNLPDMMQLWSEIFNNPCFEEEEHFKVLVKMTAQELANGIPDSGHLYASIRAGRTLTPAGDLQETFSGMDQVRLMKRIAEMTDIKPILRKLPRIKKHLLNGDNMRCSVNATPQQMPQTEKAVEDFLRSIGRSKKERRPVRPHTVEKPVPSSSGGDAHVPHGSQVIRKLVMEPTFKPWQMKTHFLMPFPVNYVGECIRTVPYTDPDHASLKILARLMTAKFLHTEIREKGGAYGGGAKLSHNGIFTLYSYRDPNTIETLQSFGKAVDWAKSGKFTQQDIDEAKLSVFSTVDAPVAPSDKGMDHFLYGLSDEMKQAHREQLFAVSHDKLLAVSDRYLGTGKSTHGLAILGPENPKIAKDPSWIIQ
Description: Pitrilysin was produced in Sf9 cells (ATCC, Manassas, VA, USA) and purified as described.. The purity of recombinant pitrilysin is greater than 97% as judged from Coomassie blue stained SDS-PAGE gels using NIH ImageJ software (S1 Fig).
Monomeric hIAPP (20 μM) was incubated with 40 nM pitrilysin in 50 mM Tris/HCl buffer (pH 7.4) containing 200 mM NaCl at 37°C for various times and analyzed by reverse phase HPLC [22, 23]. hIAPP and its cleavage products were collected manually and identified by mass spectrometry.
(§1) Having established IAPP as a substrate of pitrilysin, the kinetic properties of the reaction were determined. The rate of hIAPP hydrolysis was determined by measuring the disappearance of the substrate by HPLC, while k cat was determined based on the linear initial rate of hIAPP hydrolysis at a saturating hIAPP concentration (20 μM) using a molecular mass of 117 kDa for pitrilysin. The KM for hIAPP was determined by using it as an alternate substrate inhibitor of the hydrolysis of the fluorogenic peptide Abz-GGYRRGQ-EDDnp. The kcat and KM values of pitrilysin with hIAPP are 13.5 ± 0.1 min^-1 and 0.38 ± 0.01 μM, respectively (Table 1).

pitrilysin [2] = target: T1, pitrilysin; settings: ref [23], cited from earlier work
Description: as §1, with “Table 1 Comparison of enzymatic characters of pitrilysin and IDE towards different substrates. | column: kcat (min^-1); KM (μM); kcat/KM (min^-1μM^-1) || Having” for “Having”, “m ...” for “min^-1 and 0.38 ± 0.01 μM, respectively (Table 1).”

[3] = tested on: Insulin-degrading enzyme (IDE); settings: cited from earlier work
Description: Table 1 Comparison of enzymatic characters of pitrilysin and IDE towards different substrates. | column: kcat (min^-1); KM (μM); kcat/KM (min^-1μM^-1)

pitrilysin [4] = experiment: pitrilysin (400 nM) added to hIAPP oligomers generated with rat cardiac myocytes or from HIP rat cardiac myocytes; settings: human, 37°C, up to 1hr
recombinant pitrilysin = experiment: 40 nM pitrilysin in 50 mM Tris/HCl buffer (pH 7.4) containing 200 mM NaCl; settings: human, 37°C, up to 60'
pitrilysin [5] = experiment: 40 nM pitrilysin added to hIAPP preincubated at 37°C to induce oligomer formation; settings: human, up to 1hr
pitrilysin [6] = target: T1, pitrilysin; experiment: In vitro cleavage of oligomeric hIAPP by pitrilysin (SDS-PAGE, Western blot); assay type: biochemical; settings: hIAPP oligomers (12, 28, 36, 40 kDa and large oligomers), 40 or 400 nM pitrilysin, 37°C, 1 hr
Description: hIAPP was incubated at 37°C for 1 hr. with gentle shaking to induce hIAPP oligomerization. To produce low molecular weight oligomers, hIAPP oligomerization was initiated in saline solution at 37°C using 50 μM recombinant hIAPP and then incubated with myocytes for 2 hours at room temperature. Similarly cardiac myocytes from hIAPP expressing rats (HIP rats) contain amylin oligomers and thus both were used. Pitrilysin was added to oligomers and incubated for 1 hour at 37°C. The reaction was then subjected to SDS-PAGE and Western blotting with A11 antisera for large oligomer or with mouse anti-hIAPP for detection of monomers and small oligomers. Adult cardiac myocytes were isolated from wild-type Sprague-Dawley rats and from HIP rats as described.
Oligomers of hIAPP were generated from hIAPP incubated with rat cardiac myocytes and then incubated with pitrilysin (400 nM) at 37°C for 1 hr. Reactions were analyzed by Western blot analysis using mouse monoclonal anti-human amylin antibody E-5. b. […] Reactions were analyzed by Western blots using rabbit anti-IAPP that recognizes monomeric IAPP or rabbit anti-oligomer antibody A11. rIAPP (20 μM) was treated at the same condition as a negative control.

[7] = tested on: Insulin-degrading enzyme (IDE); experiment: Cleavage of peptide substrates by insulin-degrading enzyme (IDE), determined as for pitrilysin; assay type: biochemical; settings: mean ± SEM
Description: as §1
We therefore compared the enzymatic properties of these two enzymes in terms of hIAPP degradation. The kcat and KM values for IDE with hIAPP were determined as above yielding values of 294 ± 0.4 min^-1 and 3.11 ± 0.20 μM, respectively. […] (Table 1). Thus relative to IDE, pitrilysin is a more specific IAPP degrading enzyme.

[8] = 40 nM pitrilysin, 50 mM Tris/HCl pH 7.4, 200 mM NaCl, 37°C
[9] = 20 μM hIAPP, 40 nM pitrilysin, 37°C, HPLC peaks identified by mass spectrometry

For “rIAPP: rodent (rat) islet amyloid polypeptide, does not form oligomers”, the “Degradation of monomeric IAPP by pitrilysin” value (pitrilysin [1]; [8]) was “degrades monomeric rat IAPP”.

For amyloid β peptide 1–40 [Aβ 40], the kcat/KM (pitrilysin [2]; listed as Aβ1–40) is listed as 1.94 min^-1μM^-1, the Km (pitrilysin [2]) is listed as 1.7 ± 0.1 µM and the kcat (pitrilysin [2]) is listed as 3.3 ± 0.1 min⁻¹. The Km ([3]; ref [43]) was 870 ± 100 nM, the kcat ([3]; ref [43]) was 221 ± 11 min⁻¹ and the kcat/KM ([3]; ref [43]) was 250 min^-1μM^-1.

For Insulin, the Km (pitrilysin [2]) is listed as 54.5 ± 5.5 µM, the kcat (pitrilysin [2]) is listed as 0.2 ± 0.0 min⁻¹ and the kcat/KM (pitrilysin [2]) is listed as 0.0037 min^-1μM^-1. For the same substance, the Km ([3]; ref [44]) was 130 ± 20 nM, the kcat ([3]; ref [44]) was 0.56 ± 0.01 min⁻¹ and the kcat/KM ([3]; ref [44]) was 4.3 min^-1μM^-1.

In the case of “KCNTATCATQRLANFLVHSSNNFGAILSSTNVGSNTY-NH2”, the not cleaved (pitrilysin [4]) is reported as “inability of pitrilysin to reduce the amount of hIAPP oligomers of 12 kDa, 28 kDa, 36 kDa, or 40 kDa (1 hr)”, the cleaved bond (recombinant pitrilysin) is reported as “Phe15-Leu16, first_seen; also recorded: Gly24-Ala25, major; also recorded: Ala25-Ile26, major; also recorded: Arg11-Leu12, minor; also recorded: Leu12-Ala13, minor; also recorded: Ala13-Asn14, minor; also recorded: Asn14-Phe15, minor” and the not cleaved (pitrilysin [5]) is reported as “not able to degrade large hIAPP oligomers (1hr)”.

For “islet amyloid polypeptide (KCNTATCATQRLANFLVHSSNNFGAILSSTNVGSNTY; not fully specified (C-terminus); cysteine pairing not given here) [hIAPP, Human islet amyloid polypeptide (IAPP, amylin), from Anaspec; substrate of pitrilysin and IDE]”, the “Initial cleavage sites on hIAPP by pitrilysin” value (pitrilysin [1]; [9]) was “Phe^15-Leu^16, Gly^24-Ala^25 and Ala^25-Ile^26”, the “Secondary (subsequent) cleavage sites on hIAPP by pitrilysin” value (pitrilysin [1]; [9]) was “Arg^11-Leu^12, Leu^12-Ala^13, Ala^13-Asn^14 and Asn^14-Phe^15” and the “Degradation of monomeric IAPP by pitrilysin” value (pitrilysin [1]; [8]) was “hIAPP degradation is indeed catalyzed by pitrilysin”. For the same substance, the Km (pitrilysin [1]; pitrilysin, hIAPP as alternate substrate inhibitor of hydrolysis of fluorogenic peptide Abz-GGYRRGQ-EDDnp, mean ± SEM) was 380 ± 10 nM, the kcat (pitrilysin [1]; pitrilysin, linear initial rate of hIAPP hydrolysis at saturating 20 μM, substrate disappearance by HPLC, 50 mM Tris/HCl pH 7.4, 200 mM NaCl, 37°C, molecular mass 117 kDa, mean ± SEM) was 13.5 ± 0.1 min⁻¹ and the “Degradation of oligomeric hIAPP by pitrilysin” value (pitrilysin [6]) was “not able to degrade; also recorded: does not degrade”. For the same substance, the kcat ([7]; determined as for pitrilysin (HPLC, saturating hIAPP)) was 294 ± 0.4 min⁻¹ and the Km ([7]; determined as for pitrilysin (alternate substrate inhibitor)) was 3.11 ± 0.2 µM.
